Data on two substances can be found in paper PMC12392964.

The target in this assay is FvMYB1-GST (woodland strawberry (Fragaria vesca)). Description: pull-down; FvSTOP1-His and FvbHLH33-His incubated together with FvMYB1-GST; detection with anti-His, bands quantified with ImageJ against the incubation alone.

The substance FvSTOP1-His (natural protein) returned a binding strength with FvbHLH33-His present, against incubation alone (ImageJ) of 0.31 times. In turn, FvbHLH33-His (natural protein) gave a binding strength with FvSTOP1-His present, against incubation alone (ImageJ) of 0.54 times.
